From patent publication US20040033952A1 (published 2004)
Residue numbers refer to the chain shown, from its start. Names may count otherwise.

How the values were obtained:
human IGFBP-1 = target: T1, human IGFBP-1 (human, UniProt P08833 26-259); test: competitive phage ELISA
T1 construct: mature; also called IGFBP-I
T1 sequence (looked up): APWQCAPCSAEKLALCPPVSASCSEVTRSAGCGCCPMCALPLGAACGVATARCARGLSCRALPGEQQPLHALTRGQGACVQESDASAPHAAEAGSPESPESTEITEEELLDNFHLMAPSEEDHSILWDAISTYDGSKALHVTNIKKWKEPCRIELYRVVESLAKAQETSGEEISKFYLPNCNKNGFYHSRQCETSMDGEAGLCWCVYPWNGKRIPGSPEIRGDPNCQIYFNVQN
Procedure: (§1) E. coli cells (XL1-Blue, Stratagene) freshly transformed with phagemid vector were grown overnight in 5 mL 2YT medium (Sambrook et al., supra) in the presence of M13-VCS helper phage (Stratagene). Phage particles were harvested and resuspended in PBS buffer as described in Lowman, H. B., “Phage Display of Peptide Libraries on Protein Scaffolds,” in Cabilly, S. (ed.), Combinatorial Peptide Library Protocols (Humana Press Inc.: Totowa, N.J., 1998), pp. 249-264. Then phage concentrations were normalized to yield a maximal ELISA signal of 0.2-0.4 for each mutant (Lowman, in Cabilly, S. (ed.), supra). Threefold serial dilutions of soluble competitor were prepared on non-absorbent microtiter plates (Nune, F, 96 wells) with binding buffer (0.5% TWEEN™ 20/PBS) containing phage at the previously-determined concentrations. The dilution range of competitor protein extended over six orders of magnitude, starting at 5 μM for IGFBP-1 and 500 nM for IGFBP-3. After blocking, the plates containing immobilized target were washed with 0.05% TWEEN™/PBS buffer and subsequently incubated with 80 μl/well of the premixed phage-competitor solutions for 1 hour at room temperature. After washing, bound phage was detected with 80 μl/well of a solution containing a primary rabbit anti-phage polyclonal antibody and a secondary goat anti-rabbit monoclonal antibody-horseradish peroxidase conjugate in 0.5% TWEEN20™/PBS. o-Phenylenediamine (Sigma) and tetramethylbenzidine (Kirkegaard and Perry) were used as chromogenic substrates, resulting in product detection at 492 and 450 nm, respectively. IC₅₀ values were determined by fitting the binding data to a generic saturation curve (Lowman, in Cabilly, S. (ed.), supra).

[1] = target: T2, recombinant human IGFBP-3 (human, UniProt P17936 28-291); test: competitive phage ELISA
T2 construct: mature
T2 sequence (P17936 28-291): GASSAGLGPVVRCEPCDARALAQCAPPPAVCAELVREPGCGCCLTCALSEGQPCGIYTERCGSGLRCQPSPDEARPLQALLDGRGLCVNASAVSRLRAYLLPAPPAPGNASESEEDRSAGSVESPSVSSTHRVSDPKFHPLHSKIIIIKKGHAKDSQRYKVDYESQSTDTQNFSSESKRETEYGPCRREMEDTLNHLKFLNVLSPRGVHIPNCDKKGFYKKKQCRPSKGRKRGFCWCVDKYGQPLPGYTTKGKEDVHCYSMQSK
Procedure: as §1

[2] = target: T3, human IGFBP-1 (human), P08833; test: competitive phage ELISA; conditions: remark: other sources report otherwise
T3 chain: T1 sequence (looked up)

[3] = target: T3, human IGFBP-1 (human), P08833; test: competitive phage ELISA, IGFBP-3-coated wells, soluble IGFBP-1 as competitor (FIG. 3A); conditions: remark: other sources report otherwise

“IGF-I L5A (phage-displayed) (from UniProt P69168 267-424) (ligand)” showed a relative IC50 (IC50 mut/IC50 G1S-A70V) (human IGFBP-1) of 6.7 and a relative IC50 (IC50 mut/IC50 G1S-A70V) [1] of 2.

B1: IGF-I F49A (phage-displayed), P07455 51-118 (ligand, not shown: large carriers; small tags and cut ends)
chain: SPETLCGAELVDALQFVCGDRGFYFNKPTGYGSSSRRAPQTGIVDECCARSCDLRRLEMYCAPLKPAKSV
Work on B1 yielded a relative IC50 (IC50 mut/IC50 G1S-A70V) [2] of over 100 and a shift of the binding curve against G1S-A70V phage [3] of over 100 fold.

B2: Ala(1-3)-IGF-I (phage-displayed triple alanine mutant) (ligand)
chain: B1 chain with S1A, P2A, E3A, A49F
B2 showed an IC50 (human IGFBP-1) of 90.4 nM and an IC50 [1] of 1.12 nM.

B3: IGF-I G7A (phage-displayed) (ligand)
chain: B1 chain with G7A, A49F
notes: G1S-A70V template; monovalent M13 display; not shown: M13 gene III fragment (residues 249-406), the display carrier, and its junction to IGF-I
For B3, the IC50 [1] was 4.58 nM.
